Reference: the supplement of paper PMC9112550, “Optimization of the antimicrobial peptide Bac7 by deep mutational scanning” (BMC Biology, 2022)

System: Escherichia coli TOP10
Assay: shrunken log2 fold change of peptide-encoding DNA abundance (4.5 h post-induction vs induction); higher = less antimicrobial activity (less host growth inhibition)
Conditions: time post-induction: 4.5 h; library: site-saturation at positions 5, 18, 19, 20
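Also: peptides expressed intracellularly from a pBAD plasmid library in pooled LB shake-flask culture, induced with 0.3% L-arabinose, DNA abundance read by NGS, three biological replicates, DESeq2 with apeglm shrinkage.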

First: RRIRERPPRLPRPRPRPVTMPRP
Second: RRIRPRPPRLPRPRPRPHDSPRP
The “shrunken log2 fold change” value of the first is lower: -0.433 for the first, -0.134 for the second.

First: RRIRKRPPRLPRPRPRPAVPPRP
Second: RRIRCRPPRLPRPRPRPIQQPRP
The “shrunken log2 fold change” value of the first is higher: 0.275 for the first, -0.0847 for the second.

First: RRIRMRPPRLPRPRPRPCTKPRP
Second: RRIRIRPPRLPRPRPRPSHTPRP
The “shrunken log2 fold change” value of the first is higher: 2.28 for the first, -0.595 for the second.

Compared with RRIRYRPPRLPRPRPRPRAFPRP, RRIRTRPPRLPRPRPRPITQPRP is higher in “shrunken log2 fold change” value: -0.677 for the first, -0.168 for the second.

RRIRWRPPRLPRPRPRPPSCPRP and RRIRFRPPRLPRPRPRPEHEPRP are within 0.2 log units of each other in “shrunken log2 fold change” value: 0.0112 for the first, 0.0369 for the second.

RRIRIRPPRLPRPRPRPQGWPRP and RRIRKRPPRLPRPRPRPVMMPRP are within 0.2 log units of each other in “shrunken log2 fold change” value: -0.00188 for the first, 0.155 for the second.

RRIRWRPPRLPRPRPRPWMFPRP and RRIRNRPPRLPRPRPRPVEQPRP are within 0.2 log units of each other in “shrunken log2 fold change” value: 0.00732 for the first, 0.0207 for the second.

RRIRYRPPRLPRPRPRPTESPRP and RRIRDRPPRLPRPRPRPCIWPRP are within 0.2 log units of each other in “shrunken log2 fold change” value: 0.0538 for the first, 0.033 for the second.

Compared with RRIRQRPPRLPRPRPRPVLHPRP, RRIRSRPPRLPRPRPRPVDAPRP is higher in “shrunken log2 fold change” value: -0.149 for the first, 0.0786 for the second.

Going from RRIRSRPPRLPRPRPRPSIWPRP to RRIRNRPPRLPRPRPRPQCVPRP, the “shrunken log2 fold change” value falls from 0.266 to -0.0063.

Compared with RRIRQRPPRLPRPRPRPQSQPRP, RRIRARPPRLPRPRPRPGKEPRP is higher in “shrunken log2 fold change” value: -0.159 for the first, 0.222 for the second.

First: RRIRDRPPRLPRPRPRPQDPPRP
Second: RRIRPRPPRLPRPRPRPFWMPRP
The “shrunken log2 fold change” value of the first is lower: -0.213 for the first, -0.00291 for the second.

First: RRIRFRPPRLPRPRPRPRWVPRP
Second: RRIRQRPPRLPRPRPRPIRNPRP
The “shrunken log2 fold change” value of the first is higher: 0.191 for the first, -0.0231 for the second.

RRIRSRPPRLPRPRPRPMHSPRP and RRIRVRPPRLPRPRPRPKHAPRP are within 0.2 log units of each other in “shrunken log2 fold change” value: -0.055 for the first, 0.133 for the second.

RRIRRRPPRLPRPRPRPHSVPRP and RRIRFRPPRLPRPRPRPIYCPRP are within 0.2 log units of each other in “shrunken log2 fold change” value: 0.0319 for the first, -0.0425 for the second.

RRIRSRPPRLPRPRPRPCPQPRP and RRIRPRPPRLPRPRPRPGFHPRP are within 0.2 log units of each other in “shrunken log2 fold change” value: 0.0538 for the first, -0.0164 for the second.

Going from RRIRPRPPRLPRPRPRPRDYPRP to RRIRWRPPRLPRPRPRPPICPRP, the “shrunken log2 fold change” value falls from 0.144 to -0.0702.

RRIRLRPPRLPRPRPRPLREPRP and RRIRPRPPRLPRPRPRPCEEPRP are within 0.2 log units of each other in “shrunken log2 fold change” value: 0.332 for the first, 0.205 for the second.

First: RRIRMRPPRLPRPRPRPDPGPRP
Second: RRIRARPPRLPRPRPRPDRQPRP
The “shrunken log2 fold change” value of the first is higher: 0.46 for the first, 0.0329 for the second.

Compared with RRIRARPPRLPRPRPRPKFRPRP, RRIRHRPPRLPRPRPRPSCKPRP is lower in “shrunken log2 fold change” value: -0.043 for the first, -0.609 for the second.

RRIRHRPPRLPRPRPRPVQNPRP and RRIRDRPPRLPRPRPRPHGRPRP are within 0.2 log units of each other in “shrunken log2 fold change” value: 0.171 for the first, 0.0088 for the second.

RRIRCRPPRLPRPRPRPQDPPRP and RRIRHRPPRLPRPRPRPMSSPRP are within 0.2 log units of each other in “shrunken log2 fold change” value: -0.0952 for the first, -0.225 for the second.

RRIRNRPPRLPRPRPRPWYNPRP and RRIRIRPPRLPRPRPRPDWPPRP are within 0.2 log units of each other in “shrunken log2 fold change” value: -0.00192 for the first, 0.0262 for the second.

RRIRFRPPRLPRPRPRPKMPPRP and RRIRHRPPRLPRPRPRPQYEPRP are within 0.2 log units of each other in “shrunken log2 fold change” value: -0.0572 for the first, -0.0461 for the second.

Compared with RRIRVRPPRLPRPRPRPFSHPRP, RRIRMRPPRLPRPRPRPGFGPRP is higher in “shrunken log2 fold change” value: -0.358 for the first, 0.904 for the second.

Going from RRIRERPPRLPRPRPRPTPPPRP to RRIRWRPPRLPRPRPRPCTYPRP, the “shrunken log2 fold change” value falls from 0.491 to -0.473.

Going from RRIRMRPPRLPRPRPRPPTNPRP to RRIRRRPPRLPRPRPRPHKTPRP, the “shrunken log2 fold change” value falls from 0.949 to 0.107.

First: RRIRWRPPRLPRPRPRPDKYPRP
Second: RRIRSRPPRLPRPRPRPRYDPRP
The “shrunken log2 fold change” value of the first is higher: -0.126 for the first, -0.444 for the second.

RRIRPRPPRLPRPRPRPLCNPRP and RRIRSRPPRLPRPRPRPQISPRP are within 0.2 log units of each other in “shrunken log2 fold change” value: -0.05 for the first, -0.00331 for the second.

Compared with RRIRVRPPRLPRPRPRPMRYPRP, RRIRMRPPRLPRPRPRPWSDPRP is lower in “shrunken log2 fold change” value: 0.453 for the first, -0.131 for the second.

RRIRLRPPRLPRPRPRPWIAPRP and RRIRRRPPRLPRPRPRPAGMPRP are within 0.2 log units of each other in “shrunken log2 fold change” value: 0.0439 for the first, 0.102 for the second.

Going from RRIRVRPPRLPRPRPRPEHGPRP to RRIRWRPPRLPRPRPRPCGYPRP, the “shrunken log2 fold change” value rises from -0.219 to 0.14.

First: RRIRCRPPRLPRPRPRPVTCPRP
Second: RRIRNRPPRLPRPRPRPQQDPRP
The “shrunken log2 fold change” value of the first is higher: -0.121 for the first, -0.38 for the second.

Compared with RRIRSRPPRLPRPRPRPHAMPRP, RRIRERPPRLPRPRPRPSSSPRP is higher in “shrunken log2 fold change” value: -0.376 for the first, 0.307 for the second.

RRIRRRPPRLPRPRPRPKTVPRP and RRIRGRPPRLPRPRPRPQLKPRP are within 0.2 log units of each other in “shrunken log2 fold change” value: 0.233 for the first, 0.404 for the second.

Going from RRIRYRPPRLPRPRPRPMFSPRP to RRIRKRPPRLPRPRPRPMDLPRP, the “shrunken log2 fold change” value rises from -1.07 to 0.198.

First: RRIRIRPPRLPRPRPRPNIVPRP
Second: RRIRGRPPRLPRPRPRPGRMPRP
The “shrunken log2 fold change” value of the first is lower: -0.665 for the first, 0.727 for the second.

RRIRNRPPRLPRPRPRPHPTPRP and RRIRIRPPRLPRPRPRPDTQPRP are within 0.2 log units of each other in “shrunken log2 fold change” value: -0.0363 for the first, -0.167 for the second.

RRIRERPPRLPRPRPRPAEHPRP and RRIRNRPPRLPRPRPRPAWKPRP are within 0.2 log units of each other in “shrunken log2 fold change” value: -0.0237 for the first, 0.122 for the second.

Compared with RRIRARPPRLPRPRPRPNSCPRP, RRIRERPPRLPRPRPRPPVPPRP is higher in “shrunken log2 fold change” value: -0.205 for the first, 0.45 for the second.

First: RRIRERPPRLPRPRPRPEKPPRP
Second: RRIRQRPPRLPRPRPRPMNVPRP
The “shrunken log2 fold change” value of the first is higher: 3.84 for the first, -0.0102 for the second.

RRIRTRPPRLPRPRPRPTFRPRP and RRIRERPPRLPRPRPRPAFFPRP are within 0.2 log units of each other in “shrunken log2 fold change” value: -0.0105 for the first, 0.00883 for the second.

First: RRIRHRPPRLPRPRPRPICWPRP
Second: RRIRARPPRLPRPRPRPHDQPRP
The “shrunken log2 fold change” value of the first is lower: 0.0429 for the first, 0.808 for the second.

RRIRVRPPRLPRPRPRPEQEPRP and RRIRVRPPRLPRPRPRPQVHPRP are within 0.2 log units of each other in “shrunken log2 fold change” value: -0.0189 for the first, -0.14 for the second.

First: RRIRIRPPRLPRPRPRPQPCPRP
Second: RRIRHRPPRLPRPRPRPNVQPRP
The “shrunken log2 fold change” value of the first is higher: -0.0143 for the first, -1.87 for the second.

First: RRIRTRPPRLPRPRPRPMFFPRP
Second: RRIRWRPPRLPRPRPRPRARPRP
The “shrunken log2 fold change” value of the first is lower: -0.204 for the first, 0.773 for the second.

RRIRRRPPRLPRPRPRPHNHPRP and RRIRFRPPRLPRPRPRPCRVPRP are within 0.2 log units of each other in “shrunken log2 fold change” value: -0.237 for the first, -0.129 for the second.

Going from RRIRMRPPRLPRPRPRPPQAPRP to RRIRPRPPRLPRPRPRPFTSPRP, the “shrunken log2 fold change” value falls from 1.06 to -0.512.

RRIRNRPPRLPRPRPRPGKTPRP and RRIRPRPPRLPRPRPRPSVLPRP are within 0.2 log units of each other in “shrunken log2 fold change” value: 0.0837 for the first, 0.0488 for the second.

RRIRRRPPRLPRPRPRPQNKPRP and RRIRMRPPRLPRPRPRPYSSPRP are within 0.2 log units of each other in “shrunken log2 fold change” value: -0.172 for the first, -0.115 for the second.

RRIRCRPPRLPRPRPRPEFTPRP and RRIRERPPRLPRPRPRPMMTPRP are within 0.2 log units of each other in “shrunken log2 fold change” value: -0.194 for the first, -0.067 for the second.

RRIRHRPPRLPRPRPRPLSKPRP and RRIRCRPPRLPRPRPRPKNIPRP are within 0.2 log units of each other in “shrunken log2 fold change” value: -0.746 for the first, -0.607 for the second.

Compared with RRIRDRPPRLPRPRPRPHHTPRP, RRIRMRPPRLPRPRPRPSTLPRP is higher in “shrunken log2 fold change” value: -1.13 for the first, -0.239 for the second.

RRIRFRPPRLPRPRPRPRLDPRP and RRIRGRPPRLPRPRPRPFNKPRP are within 0.2 log units of each other in “shrunken log2 fold change” value: 0.0416 for the first, -0.158 for the second.

In the case of RRIRLRPPRLPRPRPRPMWDPRP, the “shrunken log2 fold change” value is reported as 0.0295.
